We go through 32 molecules from patent US20230279126A1 (published 2023).

In experiment [1] the target is T1, extracellular domain of human IL23R (hIL23R ECD) (human, UniProt Q5VWK5 24-355).
T1 construct: The immunogen was an ECD-human IgG1 hinge-Fc fusion
T1 sequence: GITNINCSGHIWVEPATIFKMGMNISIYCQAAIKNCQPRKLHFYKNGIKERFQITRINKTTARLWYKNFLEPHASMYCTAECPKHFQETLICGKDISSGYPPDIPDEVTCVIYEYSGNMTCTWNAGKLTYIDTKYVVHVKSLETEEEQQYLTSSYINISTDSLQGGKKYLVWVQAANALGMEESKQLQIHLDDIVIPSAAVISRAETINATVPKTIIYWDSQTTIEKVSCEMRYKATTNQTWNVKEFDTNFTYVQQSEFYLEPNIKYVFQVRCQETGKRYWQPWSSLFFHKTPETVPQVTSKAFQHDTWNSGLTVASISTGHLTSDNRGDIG
Briefly: periplasmic extract ELISA (PE-ELISA) of phage clones, colorimetric. A digest of the protocol: (§1)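 Camels were immunized in turn with fusion proteins joining the human or mouse receptor extracellular domain to a human IgG1 hinge and Fc, and their VHH domains were recovered. RNA from the blood was transcribed, and a VHH fragment of approximately 400 bp was cloned into a phagemid in E. coli, in frame with a his-tag. The resulting phage library was biopanned over multiple rounds against either the human or the mouse extracellular domain. Selective binding of single clones was read colorimetrically by periplasmic extract ELISA in 96-well plates.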

Experiment [2] addresses T2, extracellular domain of mouse IL12RB1 (mIL12Rb1 ECD) (mouse, UniProt Q60837 20-565).
T2 construct: The immunogen was a fusion of the ECD with the human IgG1 hinge and Fc; also called mIL12Rb1 ECD antigen
T2 sequence: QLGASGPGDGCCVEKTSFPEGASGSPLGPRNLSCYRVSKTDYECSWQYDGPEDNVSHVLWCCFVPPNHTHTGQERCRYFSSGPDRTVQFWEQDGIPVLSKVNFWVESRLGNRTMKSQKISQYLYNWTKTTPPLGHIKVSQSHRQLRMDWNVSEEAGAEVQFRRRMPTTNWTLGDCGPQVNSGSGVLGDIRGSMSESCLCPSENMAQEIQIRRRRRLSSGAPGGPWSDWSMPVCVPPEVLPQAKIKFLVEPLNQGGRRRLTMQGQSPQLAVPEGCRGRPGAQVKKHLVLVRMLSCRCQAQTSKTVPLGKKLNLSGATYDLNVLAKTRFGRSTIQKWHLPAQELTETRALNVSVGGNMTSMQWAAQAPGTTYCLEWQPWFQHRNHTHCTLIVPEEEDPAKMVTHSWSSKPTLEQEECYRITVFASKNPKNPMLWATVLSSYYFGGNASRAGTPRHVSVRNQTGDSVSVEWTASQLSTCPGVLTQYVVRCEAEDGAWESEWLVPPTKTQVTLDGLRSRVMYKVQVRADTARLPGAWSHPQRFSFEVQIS
Described as above. A digest of the protocol:
as §1

Numbering of substitutions follows the chain as printed.

B1: hIL23R_VHH2 (VHH)
VHH: QVQLQESGGGSVQAGGSLRLSCAASGYTYCSYDMSWYRQAPGKKREFVSSFNSDGSTSYADSVKGRFTISQDNAKNTVYLQMNSLKPEDTAMYYCKTDPHADWGAPCGGDYWGQGTQVTVSS
notes: Phagemid clone with his-tag, periplasmic extract
In the case of B1, the binding result in experiment [1] is reported as “binds”.

B2: hIL23R_VHH4 (VHH)
VHH: B1 VHH with Y27S, S31T, S35T, K44R, S50A, F51I, H100N, A101S, D102G
notes: as for B1
On to B2, for which the binding result in experiment [1] was “binds”.

B3: hIL23R_VHH3 (VHH)
VHH: QVQLQESGGGSVQAGESLRLSCAASGYTYCTYDMTWYRQAPGKKREFVSGIHSDGTTSYADSVKGRFTISQDNAENTVYLQMNSLKPEDTAMYYCKTDPIATITRRCDSYWGQGTQVTVSS
notes: as for B1
With B3, in experiment [1], the binding result was “binds”.

B4: hIL23R_VHH10 (VHH)
VHH: QVQLQESGGGSVQAGGSLKLSCAASGYTYCNYDIAWYRQAPGKERKFVSAIASDGSTSYADSVKGRFTISQDNAKNTVYLQMNSLKPEDTAMYYCKTDPIATMTRRCDPYWGQGTQVTVSS
notes: as for B1
Take B4: the binding result in experiment [1] is given as “binds”.

B5: hIL23R_VHH16 (VHH)
VHH: B4 VHH with Q13E, S17A, K19T, A23V
notes: as for B1
For the molecule B5, the binding result in experiment [1] is on record as “binds”.

B6: hIL23R_VHH7 (VHH)
VHH: B4 VHH with K19R, S56I, A101S, M103I, R106I
notes: as for B1
B6: the binding result in experiment [1] is given as “binds”.

B7: hIL23R_VHH11 (VHH)
VHH: B3 VHH with E16G, T31S, G50A, H52D, T56S, E75K, T104S
notes: as for B1
Consider B7, for which the binding result in experiment [1] is “binds”.

B8: hIL23R_VHH18 (VHH)
VHH: B4 VHH with K19R, S21A
notes: as for B1
On to B8, for which the binding result in experiment [1] was “binds”.

B9: hIL23R_VHH6 (VHH)
VHH: QVQLQESGGGLVQPGGSLRLSCAASGYTYCSYDMGWYRQAPGKKRKFVSSINSDGTTSYADSVKGRFTISQDNAKNTVYLQMNSLKPEDTAMYYCKTDPQTRPGKPCADYWGQGTQVTVSS
notes: as for B1
Consider B9, for which, in experiment [1], the binding result is “binds”.

B10: hIL23R_VHH9 (VHH)
VHH: B9 VHH with P14A, G35S, K44E
notes: as for B1
Regarding B10, the binding result in experiment [1] is given as “binds”.

B11: mIL12Rb1_VHH2 (VHH)
VHH: QVQLQESGGGSVQAGGSLRLSCAVSGYDYCGYDVRWYRQAPGKEREFVSGIDSDGSTSYADSVKGRFTISQDNAENTSYLHMFSLKPEDTAMYYCKTESPAGESAWCRNFRGMDYWGKGTQVTVSS
notes: as for B1
As to B11, in experiment [2], the binding result is reported as “binds”.

B12: mIL12Rb1_VHH10 (VHH)
VHH: B11 VHH
notes: as for B1
With B12, in experiment [2], the binding result is “binds”.

B13: mIL12Rb1_VHH7 (VHH)
VHH: B11 VHH with Q39R
notes: as for B1
On to B13, for which, in experiment [2], the binding result is listed as “binds”.

B14: mIL12Rb1_VHH16 (VHH)
VHH: B11 VHH with D52N, S99G
notes: as for B1
On to B14, for which, in experiment [2], the binding result was “binds”.

B15: mIL12Rb1_VHH21 (VHH)
VHH: B11 VHH with Q39R
notes: as for B1
Turning to B15, in experiment [2], the binding result is “binds”.

B16: mIL12Rb1_VHH23 (VHH)
VHH: QVQLQESGGGSVQAGGSLRLSCTASGYTYSSAFMAWFRQAPGKEREGVAAIYTRDGGTVYADSVKGRFTISQDNAKNTLYLQMNSLKPEDTAMYYCAAKMPQPGRASLLDSQTYDYWGQGTQVTVSS
notes: as for B1
For the molecule B16, the binding result in experiment [2] is listed as “binds”.

B17: mIL12Rb1_VHH3 (VHH)
VHH: QVQLQESGGGSVQAGGSLRLSCVASGYSYCGYDMMWYRQAPGKEREFVALITSDYSIRYEDSVEGRFSISRDNAKNTGYLLMSNLTPADTAIYYCKTSTAARESSWCRSRYRVASWGQGTQVTVSS
notes: as for B1
Take B17: the binding result in experiment [2] is “binds”.

B18: mIL12Rb1_VHH11 (VHH)
VHH: B17 VHH
notes: as for B1
Turning to B18, the binding result in experiment [2] is recorded as “binds”.

B19: mIL12Rb1_VHH13 (VHH)
VHH: B17 VHH with S105G
notes: as for B1
In the case of B19, in experiment [2], the binding result was “binds”.

B20: mIL12Rb1_VHH19 (VHH)
VHH: QVQLQESGGGSVQAGGFLRLSCVASGYGYCGYDMSWYRQVPGKEREFVALITSDRSVSYEDSVKGRFSISRDNAKNTAYLEMNRLTPDDTAIYYCKTSTAARENNWCRSRYRIASWGQGTQVTVSS
notes: as for B1
Consider B20, for which the binding result in experiment [2] was “binds”.

B21: mIL12Rb1_VHH8 (VHH)
VHH: B20 VHH with V40A, D54E, S56V, V57I, K75E, A78G, T99A, N104S, N105S, I113V
notes: as for B1
Consider B21, for which the binding result in experiment [2] is reported as “binds”.

B22: mIL12Rb1_VHH20 (VHH)
VHH: QVQLQESGGGSVQAGGSLRLSCVASGYGYCGYDMSWYRQTPGKEREFVALITSDRIASYEDSVKGRFIISRDNAKNTGYLDMTRVTPDDTAIYYCKTSAAARENSWCRSRYRVASWGQGTQVTVSS
notes: as for B1
For B22, in experiment [2], the binding result is “binds”.

B23: mIL12Rb1_VHH15 (VHH)
VHH: B20 VHH with I92V, S115Y
notes: as for B1
B23: in experiment [2], the binding result is listed as “binds”.

B24: mIL12Rb1_VHH9 (VHH)
VHH: B22 VHH with T40A, I56S, A57I, G65A, K75A, V85L, N104S
notes: as for B1
For B24, the binding result in experiment [2] is “binds”.

B25: mIL12Rb1_VHH4 (VHH)
VHH: QVQLQESGGGSVQAGGSLRLSCAASRYTYTNNFMAWFRQAPGKEREGVAAIYTGDGYAYYFDSVKGRFTISQDNDKNMLYLQMNSLKPEDTAMYYCAAMERRSGRRRMTENAEYKYWGQGTQVTVSS
notes: as for B1
For B25, the binding result in experiment [2] is given as “binds”.

B26: mIL12Rb1_VHH12 (VHH)
VHH: B25 VHH with D62Y, K76E, S103I, R105T
notes: as for B1
As to B26, in experiment [2], the binding result is given as “binds”.

B27: hIL23R_VHH13 (VHH)
VHH: QVQLQESGGGSVQAGGSLRLSCAASGYTYCSYDMKWYRQAPGKKREFVSAIDSDGSTSYADSVKGRFTISQDNAKNTVYLQMNSLKPEDTAMYYCKTEGTIPVGVCPNYWGQGTQVTVSS
notes: as for B1
B27: the binding result in experiment [1] is listed as “binds”.

B28: hIL23R_VHH14 (VHH)
VHH: B27 VHH with S11L, A14P, I101V
notes: as for B1
As to B28, the binding result in experiment [1] is given as “binds”.

B29: hIL23R_VHH8 (VHH)
VHH: B27 VHH with G10D, K44E, A50G, T57I, V105A
notes: as for B1
Consider B29, for which the binding result in experiment [1] is “binds”.

B30: hIL23R_VHH1 (VHH)
VHH: QVQLQESGGGSVQAGGSLRLSCAASGYTYCSYDMSWYRQAPGKKREFVSAFNSDGTTSYADSVKGRFTISQDKAKNTVYLQMNSLKPEDTAMYYCKTDPHVQSSGGYCPPYWGQGTQVTVSS
notes: as for B1
B30: the binding result in experiment [1] is reported as “binds”.

B31: hIL23R_VHH5 (VHH)
VHH: B30 VHH with F51I, N52A, T56S, V63L, K73N
notes: as for B1
As to B31, the binding result in experiment [1] is listed as “binds”.

B32: mIL12Rb1_VHH5 (VHH)
VHH: QVQLQESGGGSVQAGETLRLSCTVSGFTIDDSEMGWYRQAPGHECELVASGSSDDDTYYVDSVKGRFTISLDNAKNMVYLQMNSLKPEDTAVYYCATGPTYPPKDGDCAHWGQGTQVTVSS
notes: as for B1
For the molecule B32, the binding result in experiment [2] was “binds”.
